The assay addresses human c-Met on tumor cell lines (human) (UniProt P08581). Put plainly: cell-based or functional assay.

Sequence of human c-Met on tumor cell lines (human) (P08581 25-1390): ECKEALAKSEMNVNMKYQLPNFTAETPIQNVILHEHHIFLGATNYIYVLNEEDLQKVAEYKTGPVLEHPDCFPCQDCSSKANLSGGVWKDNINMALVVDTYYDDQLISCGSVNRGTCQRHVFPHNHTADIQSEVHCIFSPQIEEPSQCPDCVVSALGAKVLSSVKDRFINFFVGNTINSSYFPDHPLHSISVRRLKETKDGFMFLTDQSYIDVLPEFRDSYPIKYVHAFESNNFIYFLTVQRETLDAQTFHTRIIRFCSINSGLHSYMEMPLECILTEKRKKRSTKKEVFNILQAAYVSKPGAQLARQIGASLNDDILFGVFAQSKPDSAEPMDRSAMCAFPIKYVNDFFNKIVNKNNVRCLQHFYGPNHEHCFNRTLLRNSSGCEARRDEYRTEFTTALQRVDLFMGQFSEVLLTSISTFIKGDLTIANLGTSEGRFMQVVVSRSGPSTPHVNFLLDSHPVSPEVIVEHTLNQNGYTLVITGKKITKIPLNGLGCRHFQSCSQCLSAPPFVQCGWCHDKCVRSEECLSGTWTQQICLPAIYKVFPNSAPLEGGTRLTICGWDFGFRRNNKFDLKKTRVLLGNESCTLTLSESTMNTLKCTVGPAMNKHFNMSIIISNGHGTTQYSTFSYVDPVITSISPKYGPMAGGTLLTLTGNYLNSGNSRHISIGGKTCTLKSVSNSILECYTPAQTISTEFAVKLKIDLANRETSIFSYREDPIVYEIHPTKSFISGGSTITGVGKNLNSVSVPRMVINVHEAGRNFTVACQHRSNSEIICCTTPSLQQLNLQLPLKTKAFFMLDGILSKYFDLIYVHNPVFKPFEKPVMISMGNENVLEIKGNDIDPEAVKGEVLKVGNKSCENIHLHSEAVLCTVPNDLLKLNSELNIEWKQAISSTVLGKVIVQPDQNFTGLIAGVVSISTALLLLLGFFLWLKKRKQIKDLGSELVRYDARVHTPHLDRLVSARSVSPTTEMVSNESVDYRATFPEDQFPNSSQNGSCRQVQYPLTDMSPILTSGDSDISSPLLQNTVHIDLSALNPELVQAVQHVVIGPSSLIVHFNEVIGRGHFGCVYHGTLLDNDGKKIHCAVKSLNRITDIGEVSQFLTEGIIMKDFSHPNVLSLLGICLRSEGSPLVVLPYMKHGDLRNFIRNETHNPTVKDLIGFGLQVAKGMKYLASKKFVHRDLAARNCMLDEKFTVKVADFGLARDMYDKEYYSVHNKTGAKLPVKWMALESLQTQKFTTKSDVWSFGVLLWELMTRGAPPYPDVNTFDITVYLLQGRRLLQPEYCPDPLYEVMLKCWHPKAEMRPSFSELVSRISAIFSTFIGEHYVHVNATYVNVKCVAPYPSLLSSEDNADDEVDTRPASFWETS

Consider ABT-700 (antibody), for which the Endocytosis ratio% at 0 h, EBC-1 cells, 20 nM, flow cytometry worked out at 0%; the Endocytosis ratio% at 0.5 h, EBC-1 cells, 20 nM, flow cytometry worked out at 5.54%; the Endocytosis ratio% at 2 h, EBC-1 cells, 20 nM, flow cytometry is 29.3%; the Endocytosis ratio% at 4 h, EBC-1 cells, 20 nM, flow cytometry was 54.2%. Further, the Endocytosis ratio% at 24 h, EBC-1 cells, 20 nM, flow cytometry was 97.8%.

Take Teli-VcMMAE (antibody): the Endocytosis ratio% at 0 h, EBC-1 cells, 20 nM, flow cytometry was 0%; the Endocytosis ratio% at 0.5 h, EBC-1 cells, 20 nM, flow cytometry was 4.36%; the Endocytosis ratio% at 2 h, EBC-1 cells, 20 nM, flow cytometry was determined as 31.7%; the Endocytosis ratio% at 4 h, EBC-1 cells, 20 nM, flow cytometry stood at 58%. For the same substance, the Endocytosis ratio% at 24 h, EBC-1 cells, 20 nM, flow cytometry stood at 97.3%.
